Assay results from the supplement of paper PMC11136658.

Tested on: peptide library, one residue held at a place counted from the Y acceptor
Assay: relative phosphorylation of the sub-library (ratio to the mean residue at this position); higher = residue favoured
Outline: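 Peptide library mixtures, biotinylated and centred on Tyr, each fixed one residue at one position from −5 to +5. Purified recombinant kinases were incubated with them for 90 min in 384-well plates alongside 50 μM ATP and γ-32P-ATP, and the captured, rinsed peptides on streptavidin membranes were measured by phosphorimaging and ImageQuant. Normalization divided each position's intensities by the sum of its 18 randomized residues (16 for the Ser/Thr-free library) and multiplied by that number, so that values give phosphorylation relative to the mean randomized residue.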

Chain of JAK2, construct: aa809-end plus 9aa C-term extension from Gateway cloning, human (O60674 809-1132, looked up): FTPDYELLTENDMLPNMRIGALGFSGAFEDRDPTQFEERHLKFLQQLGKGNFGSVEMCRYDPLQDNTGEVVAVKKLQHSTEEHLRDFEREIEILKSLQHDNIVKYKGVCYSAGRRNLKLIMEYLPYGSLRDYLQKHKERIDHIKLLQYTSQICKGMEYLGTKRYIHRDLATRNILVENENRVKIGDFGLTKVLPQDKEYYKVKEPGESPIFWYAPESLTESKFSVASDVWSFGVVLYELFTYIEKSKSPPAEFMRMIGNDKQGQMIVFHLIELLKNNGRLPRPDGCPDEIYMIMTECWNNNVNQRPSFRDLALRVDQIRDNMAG
Chain of JAK1, construct: aa866-end, human (P23458 866-1154, looked up): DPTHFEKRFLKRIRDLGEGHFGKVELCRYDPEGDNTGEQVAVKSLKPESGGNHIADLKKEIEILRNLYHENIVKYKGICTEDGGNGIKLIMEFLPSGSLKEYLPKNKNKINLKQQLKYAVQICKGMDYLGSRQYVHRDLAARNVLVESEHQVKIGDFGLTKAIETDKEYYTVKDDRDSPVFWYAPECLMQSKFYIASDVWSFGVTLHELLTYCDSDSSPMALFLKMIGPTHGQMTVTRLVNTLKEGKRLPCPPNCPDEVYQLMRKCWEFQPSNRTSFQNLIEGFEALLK
Chain of ITK, construct: aa352-end, human (Q08881 352-620, looked up): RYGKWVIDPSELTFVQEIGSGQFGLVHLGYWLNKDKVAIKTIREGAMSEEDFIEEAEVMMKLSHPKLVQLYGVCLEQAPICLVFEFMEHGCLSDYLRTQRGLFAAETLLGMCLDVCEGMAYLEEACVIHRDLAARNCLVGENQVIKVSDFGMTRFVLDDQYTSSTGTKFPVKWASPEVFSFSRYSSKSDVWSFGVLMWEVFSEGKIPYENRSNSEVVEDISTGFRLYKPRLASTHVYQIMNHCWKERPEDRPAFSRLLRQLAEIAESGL

ITK, construct: aa352-end, human (from UniProt Q08881)
relative phosphorylation
Details	at +1	at +2	at +3	at +4	at +5	at -1	at -2	at -3	at -4	at -5
A fixed	1.81	1.06	0.772	0.857	1.11	0.551	1.01	0.947	1.03	0.997
D fixed	0.732	0.669	0.309	0.622	0.886	0.754	1.41	1.36	1.33	1.21
E fixed	1.51	1.13	0.274	0.821	0.792	0.709	1.51	1.52	1.38	1.08
F fixed	0.572	1.07	1.85	0.763	0.705	1.81	0.627	0.793	0.672	0.935
G fixed	1.08	0.639	0.788	1.26	1.1	0.384	1.43	1.21	1.17	1.13
H fixed	0.606	0.801	2.11	0.96	0.926	0.991	0.812	1.03	1.01	1.13
I fixed	1.51	1.12	0.913	0.996	0.332	2.5	0.548	0.511	0.759	0.718
K fixed	0.337	0.697	0.722	1.34	1.39	0.291	0.703	0.694	0.953	1.06
L fixed	0.606	0.908	0.832	0.771	0.72	2.16	0.969	0.666	0.743	0.757
M fixed	1.17	0.976	1.06	1.04	1.24	1.22	0.645	0.752	0.816	0.896
N fixed	0.361	1.06	0.757	0.846	1.06	0.585	1.33	1.39	1.15	1.24
P fixed	0.172	0.791	0.868	1.08	1.49	0.48	1.43	1.27	1.15	1.07
Q fixed	1.03	0.901	0.885	1.19	1.15	0.648	1.24	1.16	1.39	1.24
R fixed	0.432	0.987	1.41	1.32	1.55	0.308	0.64	0.774	1.05	1.14
S fixed	1.4	1.22	0.997	1.07	1.14	0.489	1.28	1.31	1.05	1.01
T fixed	1.36	1.45	0.767	1.12	1.01	1.19	1.05	1.1	0.807	0.902
V fixed	2.08	1.24	1.04	1.16	0.772	1.57	0.764	0.752	0.84	0.797
W fixed	1.23	1.27	1.65	0.785	0.634	1.36	0.605	0.759	0.706	0.692
pThr fixed	2.18	2.7	0.354	0.462	0.524	1.68	1.08	0.871	1.02	0.887
pTyr fixed	1.11	3.73	0.518	0.754	0.65	1.48	1.02	1.2	1.23	2.07

JAK1, construct: aa866-end, human (from UniProt P23458)
relative phosphorylation
Details	at +1	at +2	at +3	at +4	at +5	at -1	at -2	at -3	at -4	at -5
A fixed	0.719	1.02	0.75	0.954	1.06	1.36	1.03	1.03	1.2	1.05
D fixed	0.171	0.329	0.239	0.618	0.655	0.907	0.905	0.919	0.963	0.916
E fixed	0.237	0.402	0.195	0.79	0.649	1.08	0.81	0.891	1.02	0.871
F fixed	2.15	0.807	1.02	1.08	1.09	1.11	0.81	1.1	1.23	1.03
G fixed	0.385	0.788	0.879	1.19	1.19	1.44	1.21	1.11	1.19	1.16
H fixed	0.87	0.545	0.714	1.05	0.906	0.847	0.915	0.905	0.788	0.931
I fixed	2.1	0.695	2.37	0.834	0.784	1.24	0.941	0.795	0.861	1.04
K fixed	0.286	1.88	0.713	1.25	1.16	0.364	0.824	0.732	0.851	1.01
L fixed	2.04	0.871	2.13	0.875	0.886	1.24	1.04	1.15	1.12	1.09
M fixed	2.06	0.911	1.35	1.11	0.897	1.17	1.03	1.09	0.983	1.07
N fixed	0.289	1.04	0.752	0.882	0.923	0.749	1.05	1.02	0.784	0.914
P fixed	0.371	1.55	0.755	0.89	1.41	1.63	1.13	1.41	1.33	1.24
Q fixed	0.699	0.893	0.494	1.03	0.852	0.661	1.06	0.845	1.09	0.953
R fixed	0.509	2.13	0.985	1.45	1.33	0.414	1.02	0.851	0.929	0.911
S fixed	0.534	1.43	0.836	1.16	1.21	0.813	1.33	1.13	0.844	0.904
T fixed	0.812	1.09	1.2	0.956	1.19	0.865	1.05	0.983	0.678	0.805
V fixed	1.8	0.832	1.67	0.887	0.838	1.35	0.931	0.957	0.922	0.953
W fixed	1.96	0.781	0.953	0.988	0.971	0.756	0.89	1.08	1.22	1.14
pThr fixed	0.349	0.342	0.188	0.413	0.485	0.849	0.695	0.704	0.872	0.823
pTyr fixed	0.608	0.384	0.271	0.735	0.608	2.64	0.751	0.934	0.929	0.925

JAK2, construct: aa809-end plus 9aa C-term extension from Gateway cloning, human (from UniProt O60674)
relative phosphorylation
Details	at +1	at +2	at +3	at +4	at +5	at -1	at -2	at -3	at -4	at -5
A fixed	1.07	0.945	0.889	0.971	1.11	1.13	0.982	1.02	1.07	1.08
D fixed	0.252	0.644	0.411	0.858	0.792	1.32	0.91	1	1.04	0.999
E fixed	0.45	0.78	0.33	0.934	0.764	1.18	0.98	1.01	1.26	0.926
F fixed	1.63	1.08	1.42	1.12	1.02	1.11	0.961	1.05	1.09	1.07
G fixed	0.48	0.786	0.788	1.13	1.25	0.999	1.14	1.18	1.36	1.1
H fixed	1.42	0.785	1.12	1.05	1.04	1.05	1.07	0.901	0.929	0.919
I fixed	1.97	0.961	1.94	0.87	0.922	1.26	1.04	0.953	0.963	1.06
K fixed	0.447	1.23	0.52	1.11	0.962	0.659	0.998	0.825	0.861	0.903
L fixed	1.55	1.08	1.43	0.892	0.927	1.11	1.05	1.03	1.05	1.07
M fixed	1.35	1	1.25	1.15	0.946	0.87	0.794	0.901	0.997	1.05
N fixed	0.45	0.982	0.681	0.846	0.871	0.762	0.981	1.01	0.849	1.02
P fixed	0.566	1.03	1.24	1.04	1.64	1.16	1.13	1.45	1.16	1.22
Q fixed	0.9	0.975	0.667	1.12	0.867	0.745	0.954	0.824	1.11	1.01
R fixed	0.623	1.2	0.686	1.09	0.931	0.616	0.984	0.757	0.886	0.877
S fixed	0.814	1.02	0.893	0.966	1.1	0.987	1.05	1.02	0.772	0.927
T fixed	1.09	1.07	1.17	0.909	1.06	0.989	0.98	0.976	0.716	0.824
V fixed	1.76	1.1	1.35	0.915	0.886	1.14	0.983	1.03	0.836	0.988
W fixed	1.18	1.32	1.23	1.04	0.914	0.909	1	1.05	1.05	0.952
pThr fixed	0.332	0.537	0.205	0.53	0.543	1.1	0.744	0.944	1	0.905
pTyr fixed	0.814	0.927	0.422	0.803	0.643	1.59	0.983	1.35	1.4	1.15
